Data as given in article PMC4499159, “Quantitative characterization of protein–protein complexes involved in base excision DNA repair”.

Key:
[1] = biological target: T1, DNA polymerase beta (Polβ) (rat, UniProt P06766 1-335); assay: fluorescence titration; FAM-Polβ; n 1.3; 50 mM HEPES pH 8.0, 100 mM NaCl, 4 mM DTT (+10 mM EDTA for APE1); labelled protein from 20 nM; temperature not stated
[2] = biological target: T1, DNA polymerase beta (Polβ); assay: fluorescence titration; TAF-Polβ; n 0.94; 50 mM HEPES pH 8.0, 100 mM NaCl, 4 mM DTT (+10 mM EDTA for APE1); labelled protein from 20 nM; temperature not stated
[3] = biological target: XRCC1 (human, UniProt P18887 1-633); assay: fluorescence titration; TAF-XRCC1; n 0.90; 50 mM HEPES pH 8.0, 100 mM NaCl, 4 mM DTT (+10 mM EDTA for APE1); labelled protein from 20 nM; temperature not stated; details: protein: recombinant; tags: TAF-labelled; blunt outer ends, 1-nt gap; upstream 15-mer + downstream 16-mer on 32-mer template
[4] = biological target: AP endonuclease 1 (APE1) (human, UniProt P27695 1-318); assay: fluorescence titration; TAF-APE1; 10 mM EDTA; n 1.15; 50 mM HEPES pH 8.0, 100 mM NaCl, 4 mM DTT (+10 mM EDTA for APE1); labelled protein from 20 nM; temperature not stated; details: protein: recombinant; tags: TAF- or FAM-labelled (terminal amino group primarily); blunt outer ends, 1-nt gap; upstream 15-mer + downstream 16-mer on 32-mer template

B1: gap-DNA (dsDNA)
DNA 1: GGCGATTAAGTTGGG
DNA 2: AACGTCAGGGTCTTCC
DNA 3: GGAAGACCCTGACGTTACCCAACTTAATCGCC
modifications: 5'-phosphate on downstream primer
[1]
  apparent K (half saturation): 23 nM
[2]
  apparent K (half saturation): 30 nM
[3]
  apparent K (half saturation): 25 ± 4 nM
[4]
  apparent K (half saturation): 25 ± 3 nM
